In the assay the target is soluble 2-domain CD4 (2dCD4). The experiment in a line: BLI. (In general: In BLI a coated tip is dipped into the sample, and binding shifts an interference pattern.)

Substance “YU2(R456K).SOSIP.664 (from UniProt P35961 499-843) (complex)” yielded a fold reduction of the on-rate against YU2.SOSIP.664 of 2 fold.

Values taken from PMC5554461.
